T1: Omi WT (wild-type mature Omi/HtrA2, C-terminal hexa-His tagged, recombinant from E. coli) (Homo sapiens (humans), UniProt O43464 134-458)
T1 construct: Any N-terminal Met from Nde I cloning is not discussed for the bacterial protein; also called wild-type Omi; PRSS25
T1 sequence: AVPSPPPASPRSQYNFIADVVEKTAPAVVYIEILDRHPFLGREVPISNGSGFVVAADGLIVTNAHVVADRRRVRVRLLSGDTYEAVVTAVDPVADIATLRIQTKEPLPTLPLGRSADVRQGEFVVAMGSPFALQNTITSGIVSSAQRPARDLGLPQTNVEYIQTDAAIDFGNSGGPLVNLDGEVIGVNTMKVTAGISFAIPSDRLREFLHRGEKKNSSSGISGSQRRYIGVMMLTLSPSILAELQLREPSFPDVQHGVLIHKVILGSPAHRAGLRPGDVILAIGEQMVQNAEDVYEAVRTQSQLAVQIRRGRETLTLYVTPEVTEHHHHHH


Columns and labels:
[1] = target: T2, GST fusion form of full-length human cIAP1 (human, UniProt Q13490 1-618); assay: GST pulldown on Glutathione Sepharose beads, Western blot (anti-GST, anti-Penta-His)
T2 construct: Full-length cIAP1 fused to GST, expressed in E. coli BL21(DE3); also called GST-cIAP1; full-length cIAP1 (GST-fused); not shown: N-terminal glutathione S-transferase of pGEX-4T-2 with thrombin cleavage site
Description: To examine whether the differential in catalytic efficiency between Omi WT and OmiΔ8 was due to different binding affinities to IAPs, a GST-based pulldown assay was used to monitor the IAP binding affinities of Omi WT and OmiΔ8. Full-length cIAP1 (50 nM) was incubated with 100 nM of Omi WT and Omi mutants for 20 minutes at 4° C. in 50 μl of PBST. The samples were then incubated with 20 μl of Glutathione Sepharose beads (Amersham Biosciences, Piscataway, N.J.) for 30 minutes at 4° C. The beads were precipitated by centrifugation and washed briefly with 1.4 ml×3 of PBST. The proteins bound to the beads and left in the supernatant were separately mixed with SDS sample loading buffer and resolved by SDS-PAGE, then transferred to a nitrocellulose filter. The upper part of the filter was probed with an antibody against GST and the lower part with an antibody against Penta-His.

[2] = target: T1, Omi WT (wild-type mature Omi/HtrA2, …); assay: immunoprecipitation assay (data not shown)
[3] = target: T2, GST fusion form of full-length human …; assay: cell-based or functional assay

T2 sequence (Q13490 whole entry, the tested form may be a part): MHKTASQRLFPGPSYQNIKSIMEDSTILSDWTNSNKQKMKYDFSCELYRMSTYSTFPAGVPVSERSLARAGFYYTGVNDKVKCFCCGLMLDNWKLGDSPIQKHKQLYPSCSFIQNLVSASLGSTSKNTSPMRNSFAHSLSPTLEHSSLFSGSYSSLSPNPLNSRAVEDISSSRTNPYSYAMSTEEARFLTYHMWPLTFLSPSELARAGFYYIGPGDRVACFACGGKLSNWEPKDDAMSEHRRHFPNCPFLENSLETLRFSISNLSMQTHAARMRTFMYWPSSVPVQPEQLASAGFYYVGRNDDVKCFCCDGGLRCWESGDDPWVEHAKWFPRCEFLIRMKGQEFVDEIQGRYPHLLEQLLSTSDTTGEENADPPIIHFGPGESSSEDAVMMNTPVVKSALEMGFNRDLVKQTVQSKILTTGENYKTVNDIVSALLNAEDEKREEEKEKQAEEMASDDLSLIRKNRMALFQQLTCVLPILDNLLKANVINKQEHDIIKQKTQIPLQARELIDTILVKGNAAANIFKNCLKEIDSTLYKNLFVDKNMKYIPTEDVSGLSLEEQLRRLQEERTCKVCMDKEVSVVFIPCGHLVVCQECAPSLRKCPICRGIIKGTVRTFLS

| binding result [2] | relief of cIAP1 inhibition of caspase activity in HeLa extracts [3] [nM] | Binder | binding result [1] |
| --- | --- | --- | --- |
| – | – | OmiΔ8 (Omi without the AVPS tetrapeptide, C-terminal hexa-His tagged) (enzyme, The name Δ8 may mean that 8 residues were deleted in the tested construct; also called Omi?8; OmiΔAVPS) PPPASPRSQYNFIADVVEKTAPAVVYIEILDRHPFLGREVPISNGSGFVVAADGLIVTNAHVVADRRRVRVRLLSGDTYEAVVTAVDPVADIATLRIQTKEPLPTLPLGRSADVRQGEFVVAMGSPFALQNTITSGIVSSAQRPARDLGLPQTNVEYIQTDAAIDFGNSGGPLVNLDGEVIGVNTMKVTAGISFAIPSDRLREFLHRGEKKNSSSGISGSQRRYIGVMMLTLSPSILAELQLREPSFPDVQHGVLIHKVILGSPAHRAGLRPGDVILAIGEQMVQNAEDVYEAVRTQSQLAVQIRRGRETLTLYVTPEVTEHHHHHH | no binding (tested: 100 nM Omi mutant with 50 nM cIAP1) |
| no binding | 200 | Smac (purified recombinant) (other, UniProt Q9NR28 56-239, looked up, The construct is not described; also called Smac/DIABLO) AVPIAQKSEPHSLSSEALMRRAVSLVTDSTSTFLSQTTYALIEAITEYTKAVYTLTSLYRQYTSLLGKMNSEEEDEVWQVIIGARAEMTSKHQEYLKLETTWMTAVGLSEMAAEAAYQTGADQASITARNHIQLVKLQVEEVHQLSRKAETKLAEAQIEELRQKTQEEGEERAESEQEAYLRED | – |

From patent US20040171105A1 (published 2004)
